Consider 4 molecules from article PMC5653825, “Arrhythmogenic cardiomyopathy related DSG2 mutations affect desmosomal cadherin binding kinetics” (Scientific Reports, 2017).

Numbering of substitutions follows the chain as printed. In names and notes the source's numbering stands.

The target of one data set is Dsg2 (Homo sapiens) (UniProt Q14126). Nature of the data set: sedimentation equilibrium AUC. The conditions noted are these: cited from earlier work.
Data set [1] concerns the molecule itself. Nature of the data set: AFM single molecule force spectroscopy; Dsg2 EC1-4 covalently immobilised on both the AFM tip (long PEG linker) and the gold substrate; calcium buffer (2 mM CaCl2, 10 mM HEPES, 150 mM NaCl, pH 7.4); pulling velocities 200 to 5,000 nm s^-1; k- and x from the Evans and Ritchie model, Kd and k+ from the free energy by Jarzynski's equality; monomer to homodimer.

With Dsg2 (from UniProt Q14126), the Kd – broadly, the concentration at which binding is half-saturated – with Dsg2 (Homo sapiens) was 433 µM.

B1: Desmoglein-2 (Dsg2) p.V343I (p.V392I), recombinant extracellular cadherin domains 1-4 (EC1-4) (domain or fragment)
chain: AWITAPVALREGEDLSKKNPIAKIHSDLAEERGLKITYKYTGKGITEPPFGIFVFNKDTGELNVTSILDREETPFFLLTGYALDARGNNVEKPLELRIKVLDINDNEPVFTQDVFVGSVEELSAAHTLVMKINATDADEPNTLNSKISYRIVSLEPAYPPVFYLNKDTGEIYTTSVTLDREEHSSYTLTVEARDGNGEVTDKPVKQAQVQIRILDVNDNIPVVENKVLEGMVEENQVNVEVTRIKVFDADEIGSDNWLANFTFASGNEGGYFHIETDAQTNEGIVTLIKEVDYEEMKNLDFSVIVANKAAFHKSIRSKYKPTPIPIKVKVKNVKEGIHFKSSIISIYVSESMDRSSKGQIIGNFQAFDEDTGLPAHARYVKLEDRDNWISVDSVTSEIKLAKLPDFESRYVQNGTYTVKIVAISEDYPRKTITGTVLINVEDINDNCPTLIEPV
modifications: thiol of the unique cysteine C447 (C496) covalently coupled to the maleimide of a cross-linker (maleimide-PEG-succinimidyl valerate 3,400 on the cantilever; NHS 3-maleimidopropionate on the gold substrate)
B1: in data set [1], the Kd stood at 1010 µM; the bond lifetime tau amounted to 1.73 s; the koff (as a rule, the rate constant with which the complex falls apart) was 0.58 s⁻¹; the kon (usually the rate constant with which the complex forms) is 573 M⁻¹ s⁻¹.

B2: Desmoglein-2 (Dsg2) wildtype, recombinant extracellular cadherin domains 1-4 (EC1-4) (domain or fragment)
chain: B1 chain with I343V
modifications: thiol of the unique cysteine C447 (C496) covalently coupled to the maleimide of a cross-linker (maleimide-PEG-succinimidyl valerate 3,400 on the cantilever; NHS 3-maleimidopropionate on the gold substrate)
In the case of B2, in data set [1], the Kd came to 412 µM, the bond lifetime tau worked out at 0.33 s, the koff was 2.99 s⁻¹ and the kon was 7270 M⁻¹ s⁻¹.

B3: Desmoglein-2 (Dsg2) p.D105E (p.D154E), recombinant extracellular cadherin domains 1-4 (EC1-4) (domain or fragment)
chain: B1 chain with D105E, I343V
modifications: thiol of the unique cysteine C447 (C496) covalently coupled to the maleimide of a cross-linker (maleimide-PEG-succinimidyl valerate 3,400 on the cantilever; NHS 3-maleimidopropionate on the gold substrate)
Turning to B3, in data set [1], the Kd was found to be 817 µM, the bond lifetime tau was determined as 3.39 s, the koff was 0.3 s⁻¹ and the association rate constant (kon) came out at 361 M⁻¹ s⁻¹.
